Measurements taken from the Human Domainome abundance scans (Beltran et al. 2025).
± gives the uncertainty stated by the source.

B1: Calcium-binding protein 2, residues 155 to 219; numbered along this chain, Q9NPB3 (parent)
chain: RELRDAFREFDTNGDGRISVGELRAALKALLGERLSQREVDEILQDVDLNGDGLVDFEEFVRMMS

Variants of: B1
Test: abundance fitness (aPCA) (normalised: wild type 0, dead -1); higher = more abundant; growth selection in yeast, the domain comes from the species named
Conditions: Homo sapiens

Variant | abundance fitness
F60E | -0.672 ± 0.094
F60I | 0.116 ± 0.34
F60V | -0.278 ± 0.11
F60L | -0.228 ± 0.082
F60A | -0.471 ± 0.074
F60P | -0.896 ± 0.11
F60M | -0.116 ± 0.27
F60W | -0.012 ± 0.072
F60S | -0.326 ± 0.073
F60T | -0.306 ± 0.096
F60C | -0.176 ± 0.077
F60R | -0.798 ± 0.12
F60K | -1.08 ± 0.28
F60D | -0.71 ± 0.16
F60Q | -0.899 ± 0.12
F60H | -0.875 ± 0.14
V61E | 0.012 ± 0.17
V61T | -0.044 ± 0.095
V61Y | -0.013 ± 0.2
V61W | -0.114 ± 0.11
V61M | -0.325 ± 0.22
V61Q | -0.051 ± 0.13
V61S | 0.128 ± 0.076

Variant | abundance fitness
V61D | 0.009 ± 0.17
V61L | -0.012 ± 0.065
V61R | -0.04 ± 0.057
V61P | -0.445 ± 0.23
V61A | -0.054 ± 0.077
V61C | -0.014 ± 0.39
V61H | 0.011 ± 0.13
V61F | -0.134 ± 0.16
V61G | -0.005 ± 0.067
V61I | -0.149 ± 0.17
V61K | -0.029 ± 0.1
M64W | 0.104 ± 0.071
M64L | -0.025 ± 0.05
M64Q | -0.041 ± 0.19
M64E | 0.301 ± 0.42
M64I | -0.014 ± 0.28
M64Y | 0.209 ± 0.088
M64H | 0.098 ± 0.13
M64K | -0.075 ± 0.15
M64P | -0.555 ± 0.37
M64N | 0.171 ± 0.22
M64T | 0.015 ± 0.12
M64C | 0.067 ± 0.21

Variant | abundance fitness
M64R | 0.109 ± 0.053
M64S | 0.174 ± 0.08
M64D | -0.255 ± 0.081
M64G | 0.008 ± 0.078
M64V | 0.157 ± 0.095
E58D | -0.061 ± 0.092
E58W | -0.431 ± 0.13
E58K | 0.102 ± 0.2
E58F | -0.331 ± 0.24
E58M | -0.202 ± 0.2
E58S | -0.019 ± 0.077
E58H | -0.008 ± 0.17
E58V | -0.105 ± 0.085
E58G | -0.003 ± 0.056
E58T | -0.088 ± 0.078
E58A | -0.077 ± 0.086
E58Q | -0.102 ± 0.089
E58R | -0.117 ± 0.086
E58P | -0.025 ± 0.1
E58C | -0.576 ± 0.17
E58L | -0.008 ± 0.097
E58Y | -0.43 ± 0.16
D56M | -0.262 ± 0.18

Variant | abundance fitness
D56L | -0.201 ± 0.088
D56Y | -0.198 ± 0.19
D56P | 0.009 ± 0.092
D56W | -0.531 ± 0.089
D56I | -0.12 ± 0.099
D56R | -0.088 ± 0.052
D56S | 0.078 ± 0.082
D56V | 0.044 ± 0.077
D56T | 0.019 ± 0.069
D56Q | -0.153 ± 0.086
D56K | -0.103 ± 0.067
D56N | -0.022 ± 0.16
M63W | -0.003 ± 0.078
M63A | -0.048 ± 0.094
M63G | -0.16 ± 0.082
M63V | 0.047 ± 0.081
M63F | -0.081 ± 0.19
M63D | -0.323 ± 0.099
M63C | -0.058 ± 0.11
M63L | 0.101 ± 0.057
M63S | -0.158 ± 0.074
M63T | 0.102 ± 0.069
M63K | -0.459 ± 0.18

Variant | abundance fitness
M63R | -0.404 ± 0.065
M63Q | -0.035 ± 0.076
M63P | -0.614 ± 0.1
M63N | 0.057 ± 0.21
M63Y | -0.108 ± 0.19
M63E | -0.721 ± 0.46
M63H | 0.05 ± 0.18
E59R | -0.089 ± 0.056
E59M | 0.059 ± 0.068
E59Q | -0.025 ± 0.097
E59D | -0.405 ± 0.2
E59P | -0.1 ± 0.13
E59K | -0.092 ± 0.21
E59Y | -0.157 ± 0.22
E59I | -0.051 ± 0.1
E59G | -0.171 ± 0.064
E59A | -0.072 ± 0.064
E59H | -0.164 ± 0.19
E59F | -0.146 ± 0.11
E59W | -0.259 ± 0.081
E59S | -0.075 ± 0.064
E59T | 0.088 ± 0.096
E59L | 0.071 ± 0.055

Variant | abundance fitness
E59C | 0.033 ± 0.072
E59N | -0.282 ± 0.22
E59V | 0.083 ± 0.074
R62S | -0.065 ± 0.06
R62H | -0.233 ± 0.12
R62T | -0.182 ± 0.089
R62N | -0.111 ± 0.4
R62Q | -0.145 ± 0.069
R62V | -0.074 ± 0.059
R62G | -0.025 ± 0.068
R62W | -0.102 ± 0.066
R62L | -0.21 ± 0.075
R62D | 0.077 ± 0.21
R62C | -0.124 ± 0.097
R62Y | -0.2 ± 0.26
R62E | -0.307 ± 0.14
R62F | -0.218 ± 0.17
R62P | -0.37 ± 0.074
